B1: Death-inducer obliterator 1, residues 263 to 321; numbered along this chain, Q9BTC0 (parent)
chain: GYDPNALYCICRQPHNNRFMICCDRCEEWFHGDCVGISEARGRLLERNGEDYICPNCTI

± gives the uncertainty stated by the source.

The data set covers variants of B1. In words: abundance fitness (aPCA) (normalised: wild type 0, dead -1); higher = more abundant; growth selection in yeast, the domain comes from the species named. The conditions noted are these: Homo sapiens.
For the variant H31F, the abundance fitness is -0.559 ± 0.12.

For H31V, the abundance fitness is -0.664 ± 0.093. For the variant H31K, the abundance fitness was -0.967 ± 0.26. Turning to H31L, the abundance fitness was -0.628 ± 0.088.

As for G36V, the abundance fitness was -0.173 ± 0.059. With G36H, the abundance fitness is -0.111 ± 0.14.

As to G36E, the abundance fitness amounted to 0.057 ± 0.072. Take G36A: the abundance fitness was -0.153 ± 0.089. In the case of G36P it was -0.425 ± 0.13; in that of E46V, 0.044 ± 0.063. For the variant E46S, the abundance fitness was -0.064 ± 0.09. In the case of M20Y it was -0.304 ± 0.18; in that of M20F, -0.216 ± 0.14; in that of M20S, 0.002 ± 0.051. Under P4I stands -0.14 ± 0.17; under P4T, -0.147 ± 0.074.

Consider P4L, for which the abundance fitness worked out at 0.036 ± 0.079. As for P4E, the abundance fitness was -0.213 ± 0.23. In the case of A6R it was -0.419 ± 0.068; in that of A6M, 0.102 ± 0.082. As for A6P, the abundance fitness is -0.471 ± 0.1. Under A6Q stands -0.105 ± 0.12; under A6T, -0.07 ± 0.1. In the case of A6L it was -0.33 ± 0.078; in that of F30S, -0.266 ± 0.054; in that of F30G, -0.269 ± 0.14.

As for F30M, the abundance fitness amounted to 0.013 ± 0.048. In the case of F30H, the abundance fitness was 0.004 ± 0.15. On to I59M, for which the abundance fitness came out at 0.026 ± 0.21. With I59G, the abundance fitness was -0.218 ± 0.39. On to N5F, for which the abundance fitness was -0.189 ± 0.13. Turning to N5M, the abundance fitness was -0.113 ± 0.093. Regarding N5K, the abundance fitness was -0.23 ± 0.11. As to N5W, the abundance fitness is -0.793 ± 0.32. C23L: the abundance fitness was -1.03 ± 0.1. For C23V, the abundance fitness is -1.08 ± 0.11. For the variant R43W, the abundance fitness is -0.132 ± 0.17. As to V35M, the abundance fitness is -0.043 ± 0.066.

As for V35K, the abundance fitness was -0.407 ± 0.077. In the case of V35I it was 0.159 ± 0.066; in that of V35F, -0.225 ± 0.083; in that of L44R, 0.08 ± 0.049. Consider L44Y, for which the abundance fitness was -0.028 ± 0.08. Under L44G stands 0.08 ± 0.061; under C57H, -0.206 ± 0.18. As for C57W, the abundance fitness was -0.992 ± 0.17. In the case of C57R it was -0.769 ± 0.094; in that of E27S, -0.033 ± 0.053. For the variant E27Y, the abundance fitness was determined as 0.015 ± 0.067. Consider E27K, for which the abundance fitness amounted to 0.237 ± 0.068. Regarding E27V, the abundance fitness is -0.193 ± 0.084. As to N17T, the abundance fitness is -0.07 ± 0.074. In the case of N17W it was -0.317 ± 0.11.

In the case of E28D, the abundance fitness was determined as 0.125 ± 0.13. Turning to E28K, the abundance fitness turned out to be 0.045 ± 0.065. In the case of E28T it was 0.065 ± 0.066; in that of E28F, -0.028 ± 0.07. With S38F, the abundance fitness is -0.238 ± 0.13. Turning to S38K, the abundance fitness was -0.17 ± 0.11. In the case of S38A, the abundance fitness is -0.053 ± 0.13. Under D33M stands -0.195 ± 0.08; under D33E, -0.026 ± 0.077. As to C26K, the abundance fitness is -0.863 ± 0.24. In the case of W29T it was 0.242 ± 0.058. Take P55M: the abundance fitness is -0.112 ± 0.091. On to P55I, for which the abundance fitness is -0.156 ± 0.096. Consider I10Q, for which the abundance fitness is -0.182 ± 0.22. As to I10T, the abundance fitness worked out at 0.017 ± 0.063. I10E: the abundance fitness was -0.143 ± 0.073. For the variant D3K, the abundance fitness was determined as 0.123 ± 0.084. On to D3I, for which the abundance fitness was -0.007 ± 0.099.

Regarding D3H, the abundance fitness was 0.111 ± 0.12. Take C34F: the abundance fitness was -1.12 ± 0.17. As to C34R, the abundance fitness was -0.697 ± 0.089. Regarding C34W, the abundance fitness is -1.03 ± 0.2. For the variant C34T, the abundance fitness is -0.703 ± 0.092. For N56T, the abundance fitness was -0.01 ± 0.072. With N56E, the abundance fitness is -0.007 ± 0.21.

For N56Y, the abundance fitness turned out to be 0.021 ± 0.14. In the case of R12L, the abundance fitness is -0.11 ± 0.056. For R12E, the abundance fitness is -0.04 ± 0.094.

R12G: the abundance fitness turned out to be 0.184 ± 0.069. As to R12K, the abundance fitness was 0.148 ± 0.061. In the case of R12D it was -0.101 ± 0.21; in that of R18H, 0.112 ± 0.096; in that of R18Y, 0.011 ± 0.086. Turning to R18G, the abundance fitness stood at 0.105 ± 0.062. Under R18W stands -0.16 ± 0.083. Consider R18F, for which the abundance fitness was -0.24 ± 0.17.

Consider L45F, for which the abundance fitness was -0.295 ± 0.15. In the case of L45W it was -0.14 ± 0.094; in that of L45R, -0.005 ± 0.064; in that of L45G, -0.068 ± 0.059. Under L45D stands -0.01 ± 0.13; under Y52H, -0.493 ± 0.17; under Y52Q, -0.256 ± 0.14.

As for Y52R, the abundance fitness was -0.227 ± 0.07. Under Y52L stands -0.032 ± 0.081.

For the variant L7R, the abundance fitness was found to be 0.008 ± 0.048. Consider L7Q, for which the abundance fitness came out at 0.026 ± 0.081. L7I: the abundance fitness is 0.106 ± 0.088. As for A40F, the abundance fitness was -0.262 ± 0.086.

As for A40W, the abundance fitness is -0.193 ± 0.07. As to A40Y, the abundance fitness was -0.094 ± 0.12. On to A40P, for which the abundance fitness was -0.143 ± 0.11. In the case of A40V it was -0.146 ± 0.06. For the variant C22I, the abundance fitness was 0.07 ± 0.063. In the case of F19P, the abundance fitness stood at 0.088 ± 0.076. Take F19A: the abundance fitness was -0.182 ± 0.085.

Regarding R25P, the abundance fitness is -0.052 ± 0.077. Consider R25L, for which the abundance fitness was -0.057 ± 0.059.

As for Y8D, the abundance fitness came to 0.135 ± 0.1.

In the case of Y8H, the abundance fitness turned out to be 0.03 ± 0.09. For E39H, the abundance fitness was -0.277 ± 0.22. Under E39L stands -0.055 ± 0.062; under E39P, -0.257 ± 0.086. With E39N, the abundance fitness was -0.017 ± 0.073.

For the variant D24K, the abundance fitness came out at 0.192 ± 0.062.

In the case of D24R, the abundance fitness stood at 0.138 ± 0.056. G1W: the abundance fitness is -0.336 ± 0.21. Under G32D stands 0.045 ± 0.097. In the case of G32V it was -0.055 ± 0.059; in that of N16W, -0.072 ± 0.12. N16M: the abundance fitness came out at 0.065 ± 0.055. For the variant D51H, the abundance fitness was -0.169 ± 0.15. D51P: the abundance fitness is -0.289 ± 0.38. In the case of D51T it was -0.004 ± 0.11. As to D51L, the abundance fitness was -0.332 ± 0.09. For D51F, the abundance fitness was -0.203 ± 0.25.

In the case of E50K, the abundance fitness turned out to be 0.04 ± 0.26. Turning to E50Y, the abundance fitness was -0.58 ± 0.16. For E50L, the abundance fitness was -0.201 ± 0.094. For the variant E50P, the abundance fitness worked out at 0.068 ± 0.14. In the case of I21F it was -0.243 ± 0.083; in that of I21W, -0.582 ± 0.32; in that of I21V, 0.132 ± 0.068. I21E: the abundance fitness was -0.494 ± 0.16. In the case of R47W it was -0.062 ± 0.11; in that of R47P, 0.186 ± 0.083; in that of R47S, 0.037 ± 0.072. As to R47D, the abundance fitness amounted to 0.268 ± 0.16. For C54T, the abundance fitness is -0.65 ± 0.17. As for C54D, the abundance fitness was -0.999 ± 0.28. In the case of C54L it was -1.19 ± 0.23; in that of C54Q, -0.405 ± 0.21; in that of C54K, -0.571 ± 0.15. Consider C11L, for which the abundance fitness is -0.861 ± 0.11. For C11P, the abundance fitness was -0.999 ± 0.16. Under C9M stands -0.606 ± 0.12; under C9V, -0.552 ± 0.069. Turning to I37Y, the abundance fitness stood at 0.094 ± 0.086. As for I37D, the abundance fitness was -0.447 ± 0.21. For the variant I37A, the abundance fitness is -0.127 ± 0.061. Consider I53L, for which the abundance fitness was 0.132 ± 0.081. Turning to H15Y, the abundance fitness was -0.025 ± 0.093. In the case of H15C it was 0.018 ± 0.09; in that of H15D, 0.073 ± 0.11; in that of H15I, -0.039 ± 0.082.

Consider Y2S, for which the abundance fitness was 0.116 ± 0.083. As to Y2F, the abundance fitness was 0.351 ± 0.1. As for Y2R, the abundance fitness came out at 0.211 ± 0.07. Turning to R41V, the abundance fitness is 0.075 ± 0.068.

With R41M, the abundance fitness was -0.05 ± 0.088.

R41W: the abundance fitness was -0.443 ± 0.16. Consider R41S, for which the abundance fitness came out at 0.041 ± 0.085. With P14L, the abundance fitness turned out to be 0.022 ± 0.054.

Take P14M: the abundance fitness was 0.004 ± 0.098.

Source of the values: the Human Domainome abundance scans (Beltran et al. 2025).
